doi:10.1101/2020.10.06.327809 (bioRxiv, 2020)

Target: the molecule itself
Assay: SEC

B1: SepF-His (H. volcanii SepF expressed in E. coli, plasmid pSVA3969) (natural protein, Haloferax volcanii, UniProt D4H018 1-118, looked up)
chain: MGIMSKILGGGGSRTTEDYVELDLDDFDTARGDAGLSVHIAEIGGQQDVIAIKDAVYDGNLVIADITRHTTSDSTMEHIIDDLRQVAREVDGDIVQKGDDQIVITPTGISISRQKLNG
In the case of B1, the “stoichiometry N” value is reported as 2.
